Legend:
[1] = target: T1, human MIF (macrophage migration inhibitory factor), recombinant (human, UniProt P14174 2-115); experiment: cell-based or functional assay
[2] = target: T1, human MIF (macrophage migration …); experiment: SPR, Biacore 3000, RAM9 amine-coupled to CM5 chip, MIF injected at 40-480 nM, 1:1 Langmuir fit with mass transfer

T1 sequence (P14174 2-115 limits assumed): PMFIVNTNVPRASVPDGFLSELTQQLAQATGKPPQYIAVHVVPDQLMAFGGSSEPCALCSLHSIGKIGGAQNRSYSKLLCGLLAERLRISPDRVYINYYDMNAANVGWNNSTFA

B1: RAM9 (antibody, human IgG1, kappa, V domains shown)
VH: EVQLLESGGGLVQPGGSLRLSCAASGFTFSIYSMNWVRQAPGKGLEWVSSIGSSGGTTYYADSVKGRFTISRDNSKNTLYLQMNSLRAEDTAVYYCAGSQWLYGMDVWGQGTTVTVSS
VL: DIQMTQSPSSLSASVGDRVTITCRSSQRIMTYLNWYQQKPGKAPKLLIFVASHSQSGVPSRFRGSGSETDFTLTISGLQPEDSATYYCQQSFWTPLTFGGGTKVEIKR
notes: also deposited as plasmids DSM 25860 (hc) and DSM 25859 (lc); also called anti-MIF antibody RAM9; anti-oxMIF antibody
Question: B1 was tested. Which “Potency (IC 50); inhibition of random migration of human U937 cells, Transwell chemokinesis assay” value [1] did it give?
Answer: Its value is 1 nM.

Question: And the Kd [2]?
Answer: Its Kd is 1.7 nM.

— patent publication EP3277718B1 (Baxalta GmbH, dated 2021)
